Laboratory results taken from paper PMC9328677.

Target: T1, APLF acidic domain (APLFAD) WT (Homo sapiens, UniProt Q8IW19 450-511)
T1 sequence: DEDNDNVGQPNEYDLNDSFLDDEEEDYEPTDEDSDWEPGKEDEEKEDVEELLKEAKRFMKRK
Assay: EMSA (native PAGE, cross-linked); APLFAD alone, no histones; Native PAGE EMSA with cross-linking; EMSA and NAQ buffer, salt and temperature not in material (general assay buffer 25 mM NaPi pH 7.0, 300 mM NaCl)
Conditions: protein: recombinant; tags: TAMRA-labelled; His-GST or His-SUMO fusion for expression (TEV cleaved; SUMO may be retained); chain copies: 2; blunt

B1: 49-bp DNA, centre of 601 (dsDNA)
DNA 1: GCACCGCTTAAACGCACGTACGCGCTGTCCCCCGCGTTTTAACCGCCAA
DNA 2: TTGGCGGTTAAAACGCGGGGGACAGCGCGTACGTGCGTTTAAGCGGTGC
B1: no binding.
